Experiment: yeast display, Sf9 membrane polyspecificity reagent, FACS + sequencing; frameworks hold sequencing errors
In short: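 Polyreactivity labels are assigned by the sorting gate from which each nanobody was recovered. The gates were low and high (top ~1%), set on anti-HA fluorescence for expression and streptavidin fluorescence for reagent binding. Before sorting, galactose-induced (36–48 hours) yeast display cells were stained for 1 hour at 4 °C with 10% biotinylated, detergent-solubilized Sf9 membrane reagent.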

Sequence	polyreactivity (PSR sort gate)
QVQLVESGGGLVQAGCSLRLSCAASGSIFALYDMGWYRQAPGKERELVAAISYRGGRTYYADSVKGRFTISRDNAKNTVYLQMNSLKPEDTAVYYCATDFPGNFDYWGQGTQVTVSS	low polyreactivity
QVQLVESGGGLVQAGCSLRLSCAASGSIFGWYAMGWYRQAPGTERELVAAITLIGGSTYYADSVKGRFTISRDNAKNTVYLQMNSLKPEDTAVYYCNAVWYWGDMDYWGQGTQVTVSS	low polyreactivity
QVQLVESGGGLVQAGCSLRLSCAASGSIFKQNTMGWYRQAPGKERELVAAISSGGSTYYADSVKGRFTISRDNAKNTVYLQMNSLKPEDTAVYYCAAVTVIGGEYDYWGQGTQVTVSS	low polyreactivity
QVQLVESGGGLVQAGCSLRLSCAASGSIFKRYTMGWYRQAPGKERELVAAISSRGGSTYYADSVKGRFTISRDNAKNTVYLQMNILKPEDTAVYYCNTKLHDGYGGWRYDYWGQGTQVTVSS	high polyreactivity
QVQLVESGGGLVQAGCSLRLSCAASGSIFTNYGMGWYRQAPGKERELVADIRARSGSTYYADSVKGRFTISRDNAKNTVYLQMNSLKPEDTAVYYCAARRTSYRFDYSAGYRYGYWGQGTQVTVSS	high polyreactivity
QVQLVESGGGLVQAGCSLRLSCAASGSIFVNKAMGWYRQAPGKERELVAAISSRSSRTFYADSVKGRFTISRDNSKNTVYLQMNSLKPEDTAVYYCAARRRLAWGQGTQVTVSS	high polyreactivity
QVQLVESGGGLVQAGCSLRLSCAASGSIFYGYAMGWYRQAPGKERELVAAISYSGDRTYYADSVKGRFTISRDNAKNSVYLQMNSLKPEDTAVYYCAAQRRYGDDYWGQGTQVTVSS	high polyreactivity
QVQLVESGGGLVQAGCSLRLSCAASGSIVDPYAMGWYRQAPRKEREWVAAISGSGGSTYYADSVKGRFTISRDNAKNTVYLQMNSLKPVDTSVYYCAAADAWWGRRYKYYHWGQGTQVTVSS	low polyreactivity
QVQLVESGGGLVQAGCSLRLSCAASGSIYPYAMGWYRQAPGKERELVDAISFSDDRTYYADSVKGRFTISRDIAKNNVYVQMNSLKPEDTAFYYCDAYYFSADEYEYVYWGQGTQVTLSS	high polyreactivity
QVQLVESGGGLVQAGCSLRLSCAASGSTFGENAMGWYRQAPGKERELVAVITSDTSTYYADSVKGRFTISRDNAKNTVYLQMNSLKPEDTAVYYCAADWGGLWFWYEYWGQGTQVTVSS	low polyreactivity
QVQLVESGGGLVQAGCSLRLSCAASGSTFRPYAMGWYRQAPGKERELVAAINNSGGSTYYADSVKGRFTISRDNAKNTVYLQMNSLKPEDTAVYYCAAEWYYYFIIMNYWGQGTQVTVSS	high polyreactivity
QVQLVESGGGLVQAGCSLRLSCAASGSTFYAYTKGGYRQAPGKERELVAAISWSDGTTYADSVKGRFTISRDNAKNTVYLQMNSLKPEDTAVYYCATDDVGPGLGYNYWGEGTQVTVSS	low polyreactivity
QVQLVESGGGLVQAGCSLRLSCAASGSTFYYNAMGWYRQAPGKERELVAAITFTGGSTYADSVKGRFTISRDNAKNTVYLQLNSLKPEDTAVYYCAATIEGHDYLGTGYDYWGHGTQVTVSS	low polyreactivity
QVQLVESGGGLVQAGCSLRLSCAASGSTLNSYFMGWYRQAPGKERELVATIRSGSSTNYADSVKGRFTISRDNAKNTVYLQMNILKPEDTAVYYCAADAYSLCYDSWGQGTQVTVSS	low polyreactivity
QVQLVESGGGLVQAGCSLRLSCSASGSIFYSYAMGWYRQAPGKERELVAAITSVVSTNYADSVKGRFTISRDYAKNTVYLQMNRLKTEDTAVYYCAAGYLRLYYVCLDDSYGYDYWGQGTQVTVSS	low polyreactivity
QVQLVESGGGLVQAGCSLRLSCSASGSTFVAYAMGWYRQAPGTERELVAANTTGGSTNYADSVKGRFTISRDNAKNTVYLQMNSLKPEDTAVYYCATDSSTTWLRRATSKGPGEYWGQGTQVTVSS	low polyreactivity
QVQLVESGGGLVQAGCSLRLSSAASGFIYYRYAMGWYRQAHGKERELVAAISRSGGSTYYADSVKGRFTISRDNAKNTVYVQMNRLKPEDTAVYYCAADSGSLAPGNDYWGQGTQVTVSS	high polyreactivity
QVQLVESGGGLVQAGCSLRLTCAASGFIYLSYGMGWNRQAPGKERELVASITSDGGSTYYADSVKGRFTISRDNAKYTVYLQMNSLKPEDTAVYYCAADSVSPWYYGWYYRYRGYGYCGQGTQVTVSS	low polyreactivity
QVQLVESGGGLVQAGCSVRLSCAATGSSFVDNAMGWYRQAPGKERELVAANDGSADSTYYADSVKGRFTISRDNAKNTVYLQLNSLKPEATAVYYCAAVDYWTKFDYWGQGTQVTVSS	low polyreactivity
QVQLVESGGGLVQAGDSLRLSCAASGLTFTYYAMGWYRQAPGKERELVAAITGSGDRTYYADSVKGRFTISRDNAKNTVYLQMNSLKPEDTAVYYCARDRPGRATGFDYWGPGTQVTVSS	high polyreactivity
QVQLVESGGGLVQAGGCLRLSCAASGRTLGAYAMGWYRQAPGKEREFVASITYGGRTCYADSVKGRFTISRDNAMNTVFLQMNSLKPEDSAVYYCASKLPYRWYDYWGQGTQVTVSS	high polyreactivity
QVQLVESGGGLVQAGGCLRLSCAASGSIFAPIAMGWYRQAPGKERDLVAAITSGVGSTDYADSVKGRFTISRDNAKNNVYLQMNSLKPEDTAVYYCAADSSYLTYWEYDYWGQGTQVTVSS	low polyreactivity
QVQLVESGGGLVQAGGCLRLSCAASGSIFWGYAMGWYRPAPGKERELVAAITDSGGRTYYADSVKGRFTISRDNAKNTVYVQMNSQKPEDTAVYYCAADYYSQYYYYAVPDRDYWGQGTQVTVSS	low polyreactivity
QVQLVESGGGLVQAGGCLRLSCAPSGFIFGGYAMGWDRPAPGKEREVVAAISSSGGSTYYADSVKGRFTISRDNAKNTVYLQMNSLKPEDTAVYYCAARIQSVSSGRWFDYWGQGTQVTVSS	high polyreactivity
QVQLVESGGGLVQAGGGHRLSCAASGRTFTYNAMGWYRQAPGKERELVAAITSGGSTNYADSVKGRYTISRDNAKNTVYLQMNSLKPEDTAVYYCAADGDDYTTTEFDYWGQGTQVTVSS	low polyreactivity
QVQLVESGGGLVQAGGGLRLSCAASGRIFSRNVMGWYRQAPGKERELVAAISASGGSTYYADSVKGRFTISRDNAKNTVYLQMNSLKPEDTAVYYCAARRYPGRTATYYSWGQGTQVTVSS	high polyreactivity
QVQLVESGGGLVQAGGGLRLSCAASGRTFTYNAMGWYRQAPGKERELVAAITYDGGGTYADSVKGRFTISRDNAKNTVYLQMNSMKPEDSAVYYCNKGPDPGSFYDYWGQGTQVTVSS	low polyreactivity
QVQLVESGGGLVQAGGGLRLSCAASGSIFRSNTMGWYRQAPGKERELVAGISYSGGSTYADSVKGRFTISRDNAKNTVYLQMNSLKPEDTAVYYCARRVYSYDVLYFSYYYWGQGTQVTVSS	low polyreactivity
QVQLVESGGGLVQAGGIHRLSCPASGIIFYYYAMGWYRHAPGKESELVAAISWSGGSTYYADSVKGRFTISRDNAKYTVYLQMNSLKPEDTAVYYCAAAFSPGWWSRHTYDYDYWVQGTQVTVSS	high polyreactivity
QVQLVESGGGLVQAGGILRISCAASGRNLSRNAMGWYRQAPGKERELVAAISRSGSRTYYADSVKGRFTISRDNAKNSVYLLMNSLKPEDTAVYYCNAESYLSGWWYDYWGQGTQVTVSS	high polyreactivity
